Tests used:
[1] = biological target: CD3 (Cluster of Differentiation 3 protein), human, on T cells / Jurkat cells (human) (UniProt P07766); assay: FACS, CD3+ T cells isolated from normal donors
[2] = biological target: GPRC5D (G-protein coupled receptor family C group 5 member D), human, on multiple myeloma cell lines (human) (UniProt Q9NZD1); assay: cell-based or functional assay
GPRC5D (G-protein coupled receptor family C group 5 member D), human, on multiple myeloma cell lines (human), sequence (Q9NZD1 whole entry): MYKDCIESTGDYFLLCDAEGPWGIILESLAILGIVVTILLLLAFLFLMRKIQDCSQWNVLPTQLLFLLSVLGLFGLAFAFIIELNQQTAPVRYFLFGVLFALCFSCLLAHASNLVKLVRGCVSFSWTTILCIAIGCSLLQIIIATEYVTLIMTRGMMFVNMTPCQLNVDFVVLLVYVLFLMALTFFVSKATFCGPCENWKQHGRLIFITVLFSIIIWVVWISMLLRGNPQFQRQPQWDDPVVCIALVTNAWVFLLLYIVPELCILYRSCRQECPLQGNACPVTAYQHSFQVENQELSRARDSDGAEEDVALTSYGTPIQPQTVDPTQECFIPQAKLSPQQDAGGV

CD3 (Cluster of Differentiation 3 protein), human, on T cells / Jurkat cells (human), sequence (P07766 23-207, chain 1 of 3): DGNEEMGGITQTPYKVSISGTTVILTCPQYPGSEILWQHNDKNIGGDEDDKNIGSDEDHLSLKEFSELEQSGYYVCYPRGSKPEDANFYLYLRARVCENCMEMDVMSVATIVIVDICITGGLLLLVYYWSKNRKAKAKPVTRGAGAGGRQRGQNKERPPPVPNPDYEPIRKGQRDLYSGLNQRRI
CD3 (Cluster of Differentiation 3 protein), human, on T cells / Jurkat cells (human), sequence (P04234 22-171, chain 2 of 3, further chain): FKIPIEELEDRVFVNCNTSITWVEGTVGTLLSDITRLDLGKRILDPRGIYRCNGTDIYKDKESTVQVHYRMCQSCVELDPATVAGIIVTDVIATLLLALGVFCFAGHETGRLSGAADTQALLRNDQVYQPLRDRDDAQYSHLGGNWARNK
CD3 (Cluster of Differentiation 3 protein), human, on T cells / Jurkat cells (human), sequence (P09693 23-182, chain 3 of 3, further chain): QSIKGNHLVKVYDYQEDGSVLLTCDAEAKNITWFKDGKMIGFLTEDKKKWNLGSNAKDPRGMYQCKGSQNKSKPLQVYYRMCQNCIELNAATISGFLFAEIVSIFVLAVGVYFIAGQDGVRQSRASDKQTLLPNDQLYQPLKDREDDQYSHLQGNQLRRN

Top (MFI) [1]: 124 MFI
Top (RLU), luciferase assay, L363 [2]: 23.4 RLU
Top (RLU), luciferase assay, MM.1S [2]: 30.7 RLU
Top (RLU), luciferase assay, RPMI8226 [2]: 5.33 RLU
Substance: IgG1 (antibody)
Top (%), T-Cell Dependent Cytotoxicity, MM.1S [2]: 6.08%

Source: patent US20260193348A1
